Positions count from the first letter of the chain named. Like-named read-outs stand apart in the source and are kept apart here.
What was measured:
[1] = target: T1, CXCL9_HUMAN (human, UniProt Q07325 23-125); assay: BLI
T1 sequence: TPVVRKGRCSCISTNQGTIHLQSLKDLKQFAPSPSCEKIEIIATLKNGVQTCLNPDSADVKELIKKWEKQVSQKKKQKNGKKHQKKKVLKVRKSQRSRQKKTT

[2] = target: CXCL12_HUMAN (human, UniProt P48061 22-89); assay: BLI
[3] = target: T2, CXCL13_HUMAN (human, UniProt O43927 23-109); assay: BLI
T2 sequence: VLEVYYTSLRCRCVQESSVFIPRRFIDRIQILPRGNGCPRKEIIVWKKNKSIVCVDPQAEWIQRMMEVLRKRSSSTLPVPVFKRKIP

[4] = target: T3, CXCL8_HUMAN (human, UniProt P10145 28-99); assay: yeast surface display FACS re-test; note: test concentration or dose not given here
T3 sequence: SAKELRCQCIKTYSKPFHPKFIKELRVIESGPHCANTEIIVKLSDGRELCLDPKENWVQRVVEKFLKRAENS

[5] = target: T4, CXCL14_HUMAN (human, UniProt O95715 35-111); assay: BLI
T4 sequence: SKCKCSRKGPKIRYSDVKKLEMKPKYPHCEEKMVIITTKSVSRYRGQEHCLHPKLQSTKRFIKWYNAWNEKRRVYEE

[6] = target: T5, CXCL7_HUMAN (human, UniProt P02775 59-128); assay: BLI [Cont.]
T5 sequence: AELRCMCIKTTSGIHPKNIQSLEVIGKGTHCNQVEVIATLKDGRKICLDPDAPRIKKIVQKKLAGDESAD

[7] = target: T3, CXCL8_HUMAN; assay: BLI [Cont.]
[8] = target: T6, CXCL10_HUMAN (human, UniProt P02778 22-98); assay: yeast surface display FACS re-test; note: test concentration or dose not given here
T6 sequence: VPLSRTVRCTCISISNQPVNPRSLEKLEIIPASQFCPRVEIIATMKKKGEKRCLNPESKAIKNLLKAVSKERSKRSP

[9] = target: T7, CXCL11_HUMAN (human, UniProt O14625 22-94); assay: yeast surface display FACS re-test; note: test concentration or dose not given here
T7 sequence: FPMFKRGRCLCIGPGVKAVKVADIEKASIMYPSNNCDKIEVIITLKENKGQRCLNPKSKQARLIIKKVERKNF

[10] = target: T8, CXCL1_HUMAN (human, UniProt P09341 35-107); assay: yeast surface display FACS re-test; note: test concentration or dose not given here
T8 sequence: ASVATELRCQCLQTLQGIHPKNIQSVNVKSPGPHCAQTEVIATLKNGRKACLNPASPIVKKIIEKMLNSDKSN

[11] = target: T6, CXCL10_HUMAN; assay: BLI
[12] = target: T9, CXCL6_HUMAN (human, UniProt P80162 38-114); assay: BLI [Cont.]
T9 sequence: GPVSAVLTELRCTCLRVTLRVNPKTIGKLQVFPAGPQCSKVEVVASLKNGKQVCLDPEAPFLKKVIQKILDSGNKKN

[13] = target: T10, P467_RHIPU (Rhipicephalus pulchellus, UniProt L7M8Z8 22-127); assay: BLI
T10 sequence: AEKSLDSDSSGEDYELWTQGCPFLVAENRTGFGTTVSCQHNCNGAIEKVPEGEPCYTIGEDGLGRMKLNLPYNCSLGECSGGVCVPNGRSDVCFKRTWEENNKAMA

[14] = target: T11, P546_AMBCA (Amblyomma cajennense, UniProt A0A023FBW7 22-118); assay: BLI
T11 sequence: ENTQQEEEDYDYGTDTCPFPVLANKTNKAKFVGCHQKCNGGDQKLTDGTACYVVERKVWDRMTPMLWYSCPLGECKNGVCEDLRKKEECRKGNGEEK

[15] = target: T12, P1180_AMBTR (Amblyomma triste, UniProt A0A023G6B6 26-116); assay: BLI
T12 sequence: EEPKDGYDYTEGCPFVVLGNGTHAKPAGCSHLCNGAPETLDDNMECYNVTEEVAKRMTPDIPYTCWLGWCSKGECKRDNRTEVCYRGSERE

[16] = target: T13, P1181_AMBMA (Amblyomma maculatum, UniProt G3MIX6 26-115); assay: BLI
T13 sequence: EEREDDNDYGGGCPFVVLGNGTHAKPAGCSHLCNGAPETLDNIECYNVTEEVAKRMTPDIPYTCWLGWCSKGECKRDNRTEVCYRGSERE

[17] = target: T14, P1183_AMBTR (Amblyomma triste, UniProt A0A023G9N9 26-115); assay: BLI
T14 sequence: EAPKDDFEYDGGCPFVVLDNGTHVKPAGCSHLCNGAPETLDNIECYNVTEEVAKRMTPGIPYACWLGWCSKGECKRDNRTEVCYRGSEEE

[18] = target: T15, P1243_AMBAM (Amblyomma americanum, UniProt A0A0C9S461 26-123); assay: BLI
T15 sequence: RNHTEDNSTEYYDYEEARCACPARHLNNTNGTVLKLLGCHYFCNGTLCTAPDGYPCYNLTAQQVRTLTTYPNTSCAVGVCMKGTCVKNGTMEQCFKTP

[19] = target: T16, P672_RHIPU (Rhipicephalus pulchellus, UniProt L7MC74 22-125); assay: BLI
T16 sequence: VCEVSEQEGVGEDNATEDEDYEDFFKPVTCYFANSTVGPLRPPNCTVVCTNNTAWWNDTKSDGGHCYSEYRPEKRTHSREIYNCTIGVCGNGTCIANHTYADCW

[20] = target: T17, P974_AMBCA (Amblyomma cajennense, UniProt A0A023FDY8 22-118); assay: BLI
T17 sequence: T11 sequence with E8Q, S69E, E88D

[21] = target: T18, P983_AMBCA (Amblyomma cajennense, UniProt A0A023FFB5 22-119); assay: BLI
T18 sequence: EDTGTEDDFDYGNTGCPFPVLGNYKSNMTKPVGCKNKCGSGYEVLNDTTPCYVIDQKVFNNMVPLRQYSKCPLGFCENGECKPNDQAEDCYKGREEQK

[22] = target: T19, P985_AMBPA (Amblyomma parvum, UniProt A0A023FT45 25-132); assay: BLI
T19 sequence: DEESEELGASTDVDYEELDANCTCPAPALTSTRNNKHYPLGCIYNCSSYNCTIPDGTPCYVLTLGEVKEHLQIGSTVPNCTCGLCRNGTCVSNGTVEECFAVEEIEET

[23] = target: T20, P991_AMBCA (Amblyomma cajennense, UniProt A0A023FFD0 29-136); assay: BLI
T20 sequence: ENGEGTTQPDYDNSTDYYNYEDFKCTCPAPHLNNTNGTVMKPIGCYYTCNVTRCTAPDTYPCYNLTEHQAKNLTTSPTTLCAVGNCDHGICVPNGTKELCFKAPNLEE

[24] = target: T15, P1243_AMBAM; assay: BLI; remark: listed apart in the source
[25] = target: T21, CXCL4_HUMAN (human, UniProt P02776 32-101); assay: BLI [Cont.]
T21 sequence: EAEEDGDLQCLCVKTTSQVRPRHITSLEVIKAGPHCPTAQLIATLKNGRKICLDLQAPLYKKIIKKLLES

[26] = target: T7, CXCL11_HUMAN; assay: BLI

CXCL12_HUMAN, sequence (P48061 22-89 limits assumed): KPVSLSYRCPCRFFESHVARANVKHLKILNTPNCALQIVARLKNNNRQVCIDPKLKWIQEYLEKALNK

B1: P1127_IXORI (other)
chain: AGKDDEHFSVDYCGMNCTQQEDGSWTACSGRNGECRCYHESGKRSGLCLSTTYIDFSEYGNLSDSDIAAASPRLSMKESH
binding result [1]: no binding (tested: 300 nM)
binding result [2]: no binding (tested: 300 nM)
binding result [3]: no binding (tested: 300 nM)
% cells over threshold fluorescence [4]: 43%

B2: P1074_IXORI (other)
chain: GSKESSAHQSSDDSIKAEFCDAKCTMKTDGKWTQCHGGCFCVHVGNETEGRCMRLDGDYDYPSTQPEE
binding result [2]: no binding (tested: 300 nM)
binding result [5]: no binding (tested: 300 nM)
binding result [6]: no binding (tested: 300 nM)
binding result [7]: no binding (tested: 300 nM)
% cells over threshold fluorescence [8]: 71%
% cells over threshold fluorescence [9]: 33%

B3: P1168_IXORI (other)
chain: GQDTDGKEKSDEYELFTVEYCGTNCTQLENGSWTACTGKNGTCRCFHENDKKVGLCLSTEYTDFSEYPDPNSEEIKAASPLP
binding result [1]: no binding (tested: 300 nM)
binding result [2]: no binding (tested: 300 nM)
binding result [3]: no binding (tested: 300 nM)
% cells over threshold fluorescence [10]: 66%
% cells over threshold fluorescence [4]: 24%

B4: P1101_IXORI (other)
chain: HTTVAGSDEDIEVSYCGMNCTVESGKSSKCSPDCVCVHEGNERDGICISITYLGDLGNPLEDPSIDLATPLAPVFQSSK
% cells over threshold fluorescence [8]: 75%

B5: P1080_IXORI (other)
chain: SAGSKGSSAPQSSGDSVVAEFCDTNCTMKKDGKWTECNGDCFCVHVGNETVGRCMRLDGDYDYTSSKTTRRNKKTRNGLCRLDRNRTTVDYPERNTREP
% cells over threshold fluorescence [8]: 70%
% cells over threshold fluorescence [9]: 45%

B6: P1174_IXORI (other)
chain: LNNENELFSVEYCGANCTQQDNGSWTKCKGNCTCYHEDGKRYGLCLSTEYTDFTQFPKPTSEEIADASPRPKETNSH
binding result [1]: no binding (tested: 300 nM)
binding result [11]: no binding (tested: 300 nM)
binding result [2]: no binding (tested: 300 nM)
binding result [3]: no binding (tested: 300 nM)
binding result [5]: no binding (tested: 300 nM)
binding result [12]: no binding (tested: 300 nM)
% cells over threshold fluorescence [4]: 29%

B7: CCL7_HUMAN (ligand)
chain: not shown
Kd [13]: 2.15 nM
Kd [14]: 90 nM
Kd [15]: 98 nM
Kd [16]: 120 nM
Kd [17]: 5.4 nM
Kd [18]: 8.66 nM
Kd [19]: 16 nM
Kd [20]: 41.2 nM
Kd [21]: 32 nM
Kd [22]: 61 nM
Kd [23]: 0.514 nM
Kd [24]: 8.66 nM

B8: P675_IXORI (other)
chain: GSNQLSGPQSSANSNDAVFCDTNCTQGTDGAWSGCRGDCFCVHVGNSTEGRCIELIGDFDYSTPGAED
binding result [1]: no binding (tested: 300 nM)
binding result [2]: no binding (tested: 300 nM)
binding result [5]: no binding (tested: 300 nM)
binding result [6]: no binding (tested: 300 nM)
binding result [7]: no binding (tested: 300 nM)
% cells over threshold fluorescence [9]: 55%

B9: P942_IXORI (other)
chain: NQLSGPQSSANSNEAVFCDTNCTQGTDEAWSGCRGDCFCVYVGNSTEGRCMMLSGDFDYSTPGAED
binding result [1]: no binding (tested: 300 nM)
binding result [2]: no binding (tested: 300 nM)
binding result [5]: no binding (tested: 300 nM)
binding result [6]: no binding (tested: 300 nM)
binding result [7]: no binding (tested: 300 nM)
% cells over threshold fluorescence [9]: 37%

B10: P1078_IXORI (other)
chain: GSKGSSAQQSSHDSIKAEFCETNCTMKTGGKWTQCHGGCFCVHVGNETVGRCIKLDGDYDYPSSKHEE
binding result [1]: no binding (tested: 300 nM)
binding result [2]: no binding (tested: 300 nM)
binding result [5]: no binding (tested: 300 nM)
binding result [6]: no binding (tested: 300 nM)
binding result [7]: no binding (tested: 300 nM)
binding result [25]: no binding (tested: 300 nM)
% cells over threshold fluorescence [9]: 38%

B11: P1128_IXORI (other)
chain: KDDEHFSVDYCGMNCTQQEDGSWTACSGRNEECRCYHESGKKNGLCLSTTYIDFSQYGNPSDSDIAAASPRP
binding result [1]: no binding (tested: 300 nM)
binding result [11]: no binding (tested: 300 nM)
binding result [26]: no binding (tested: 300 nM)
binding result [2]: no binding (tested: 300 nM)
binding result [3]: no binding (tested: 300 nM)
binding result [5]: no binding (tested: 300 nM)
binding result [12]: no binding (tested: 300 nM)
% cells over threshold fluorescence [4]: 53%

From patent publication US20240034757A1 (OXFORD UNIVERSITY INNOVATION, published 2024)
